# Results from US20250163127A1.
# Read-outs that look alike come from different tables or passages of the source.
# How the values were obtained:
# [1] = biological target: T1, human ICOSL (human); test: flow cytometry, cells expressing human ICOSL
# T1 sequence: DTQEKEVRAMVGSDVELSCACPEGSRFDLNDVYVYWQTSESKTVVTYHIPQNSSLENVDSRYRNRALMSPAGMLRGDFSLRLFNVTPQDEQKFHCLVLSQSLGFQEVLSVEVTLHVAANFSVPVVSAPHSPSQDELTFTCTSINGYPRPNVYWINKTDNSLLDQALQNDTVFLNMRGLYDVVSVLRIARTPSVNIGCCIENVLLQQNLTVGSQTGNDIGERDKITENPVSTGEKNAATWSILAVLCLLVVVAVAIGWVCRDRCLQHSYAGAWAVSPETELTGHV
# [2] = biological target: CTLA-4 (human); test: flow cytometry, cells expressing CTLA-4
# [3] = biological target: CD28 (human) (UniProt P10747); test: flow cytometry, cells expressing CD28
# [4] = biological target: PD-L1 (human); test: flow cytometry, cells expressing PD-L1
# [5] = biological target: CTLA-4 (Homo sapiens (Human)) (UniProt P16410); test: flow cytometry, transfected cells
# Chain of CTLA-4 (Homo sapiens (Human)) (P16410 36-223): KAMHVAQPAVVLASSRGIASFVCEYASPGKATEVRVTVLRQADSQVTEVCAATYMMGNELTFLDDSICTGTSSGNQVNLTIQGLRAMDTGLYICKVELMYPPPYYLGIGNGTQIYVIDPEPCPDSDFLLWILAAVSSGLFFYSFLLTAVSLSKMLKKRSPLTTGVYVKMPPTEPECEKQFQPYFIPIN
# [6] = biological target: CD28 (human) (UniProt P10747); test: flow cytometry, transfected cells
# [7] = biological target: CTLA4 (human); test: flow cytometry, CHO cells stably expressing CTLA4
# Chain of CTLA4 (human) (chain, as listed by the source): as the sequence (P16410 36-223) above
# [8] = biological target: CD28 (human) (UniProt P10747); test: flow cytometry, Jurkat cells (CD28)
# [9] = biological target: ICOS (Homo sapiens (Human)) (UniProt Q9Y6W8); test: flow cytometry, transfected cells
# Chain of ICOS (Homo sapiens (Human)) (Q9Y6W8 21-199 limits assumed): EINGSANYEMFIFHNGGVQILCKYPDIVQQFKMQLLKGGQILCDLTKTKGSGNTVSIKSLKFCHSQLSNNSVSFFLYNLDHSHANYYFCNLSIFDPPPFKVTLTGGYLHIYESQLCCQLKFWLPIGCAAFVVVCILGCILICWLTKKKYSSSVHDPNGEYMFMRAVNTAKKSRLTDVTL
# [10] = biological target: CD28, full-length, expressed on transfected cells (Homo sapiens (Human)) (UniProt P10747); test: flow cytometry, cells expressing target
# [11] = biological target: PD-L1 (human); test: flow cytometry, CHO cells stably expressing PD-L1
# Target sequence in this assay (chain, as listed by the source): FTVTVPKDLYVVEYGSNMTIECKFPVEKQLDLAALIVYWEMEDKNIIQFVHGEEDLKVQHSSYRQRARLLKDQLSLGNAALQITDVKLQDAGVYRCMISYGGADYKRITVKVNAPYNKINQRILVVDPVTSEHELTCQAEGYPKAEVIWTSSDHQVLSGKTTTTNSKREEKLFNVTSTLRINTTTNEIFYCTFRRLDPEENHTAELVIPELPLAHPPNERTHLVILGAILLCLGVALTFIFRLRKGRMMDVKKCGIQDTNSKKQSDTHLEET
# [12] = biological target: CD80 (human) (UniProt P33681); test: flow cytometry, cells expressing the partner
# Chain of CD80 (human) (UniProt P33681) (P33681 35-288): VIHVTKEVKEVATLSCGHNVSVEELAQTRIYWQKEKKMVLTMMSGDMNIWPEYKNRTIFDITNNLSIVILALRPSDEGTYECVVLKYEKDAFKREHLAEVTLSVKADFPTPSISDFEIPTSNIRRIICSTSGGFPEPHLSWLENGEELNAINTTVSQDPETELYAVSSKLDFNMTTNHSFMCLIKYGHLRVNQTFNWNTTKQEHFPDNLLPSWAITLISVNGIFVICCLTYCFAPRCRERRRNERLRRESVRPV
# [13] = biological target: T2, ICOSL (human) (UniProt O75144); test: flow cytometry, cells expressing the partner
# T2 sequence: T1 sequence
# [14] = biological target: CD86 (human) (UniProt P42081); test: flow cytometry, cells expressing the partner
# [15] = biological target: CD80 (human); test: flow cytometry, cells expressing CD80, 20 nM
# Chain of CD80 (human) (chain, as listed by the source): as the sequence (P33681 35-288) above
# [16] = biological target: CTLA-4 (human); test: flow cytometry, CHO cells expressing CTLA4
# Target sequence in this assay (chain, as listed by the source): as the sequence (P16410 36-223) above
# [17] = biological target: CD28 (human) (UniProt P10747); test: flow cytometry, Jurkat cells (CD28); remark: listed apart in the source
# [18] = biological target: PD-L1 (human); test: flow cytometry, CHO cells expressing PD-L1
# Chain of WT CD80 ECD-Fc (R&D) (Fc fusion) (chain): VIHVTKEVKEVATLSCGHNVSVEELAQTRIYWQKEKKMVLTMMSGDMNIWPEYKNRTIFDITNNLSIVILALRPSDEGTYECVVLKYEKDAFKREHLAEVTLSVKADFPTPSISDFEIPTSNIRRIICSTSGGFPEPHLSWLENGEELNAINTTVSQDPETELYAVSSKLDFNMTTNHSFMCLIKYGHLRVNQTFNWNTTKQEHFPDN
# Chain of CTLA4-Fc (P16410 37-162 limits assumed): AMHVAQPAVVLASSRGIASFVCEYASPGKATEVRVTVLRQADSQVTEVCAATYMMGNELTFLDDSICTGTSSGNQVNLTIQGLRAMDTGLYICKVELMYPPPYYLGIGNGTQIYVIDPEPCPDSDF
# Chain of WT CD80 (Fc fusion) (chain): as the sequence (chain) above
substance,measurement,setting,value
variant CTLA-4 ECD-Fc G29W/M56T/S72G/L98Q/Y105L (Fc fusion),MFI,[1],534 MFI
variant CD80 E24G/L25P/L70Q/A91G/I118V/T120S/N152T (Fc fusion),MFI,[2],38 MFI
same,MFI,[3],26 MFI
variant CD80 I67T/L70Q/A91G/I118V/T120S (Fc fusion),MFI,[2],160 MFI
same,parental ratio,[2],0.77
same,MFI,[3],98 MFI
same,parental ratio,[3],1.03
same,MFI,[4],5 MFI
same,parental ratio,[4],0.08
ICOSL-Fc N52D/N57A/Q100A (Fc fusion),MFI,[5],340000 MFI
same,MFI,[6],138000 MFI
variant CD80 Y31H/T41G/M43L/L70Q/A91G/I118V/T120S/I126V/T130A (Fc fusion),MFI,[4],6 MFI
variant CD80 T28S/L70Q/A91G/E95K/I118V/T120S/I126V/T130A/K169E (Fc fusion),MFI,[2],65 MFI
same,parental ratio,[2],0.31
same,MFI,[3],32 MFI
same,parental ratio,[3],0.34
same,MFI,[4],6 MFI
same,parental ratio,[4],0.08
CD80 variant A26E/E35D/M43I/M47L/L85Q/K86E/R94W IgV-Fc (Fc fusion),MFI at 33.3 nM,[7],2950 MFI
same,MFI at 33.3 nM,[8],314 MFI
variant CD80 A91G (Fc fusion),MFI,[2],200 MFI
same,MFI,[4],85 MFI
variant CD80 A91G/S103P (Fc fusion),MFI,[3],39 MFI
same,MFI,[4],9 MFI
ICOSL-Fc N52H/N57Y/Q100K (Fc fusion),MFI,[9],214000 MFI
same,MFI,[6],142000 MFI
ICOSL ECD-Fc N30D/N52S/L67P/Q100K/D217G/R221K/T225S (Fc fusion),MFI,[10],1990 MFI
ICOSL-Fc N52T/N57K/Q100P (Fc fusion),MFI,[5],78300 MFI
same,MFI,[6],88700 MFI
CD80 variant Q33L/E35D/M47V IgV-Fc (Fc fusion),MFI at 33.3 nM,[7],47600 MFI
same,MFI at 33.3 nM,[11],47900 MFI
WT CD80 (Fc fusion),MFI,[4],70 MFI
ICOSL ECD-Fc N52H/N57Y/Q100R/F172S (Fc fusion),MFI,[9],238000 MFI
same,MFI,[5],606000 MFI
variant CD80 M38T/L70Q/E77G/A91G/I118V/T120S/T130A/N152T (Fc fusion),MFI,[3],61 MFI
ICOSL ECD-Fc N52S/E90A (Fc fusion),MFI,[10],31100 MFI
CTLA-4 ECD-Fc L12P/A26T/L63P (Fc fusion),MFI,[12],2400 MFI
same,MFI,[13],891 MFI
same,MFI,[14],500000 MFI
CTLA-4 ECD-Fc L63P/L98Q/Y105L (Fc fusion),MFI,[12],4720 MFI
same,MFI,[13],1800 MFI
same,MFI,[14],411000 MFI
CD80 variant Q27H/E35D/M47L/L85Q/R94Q/E95K IgV-Fc (Fc fusion),MFI at 33.3 nM,[11],36100 MFI
same,MFI at 33.3 nM,[8],282 MFI
CD80 variant E35D/D46V/M47I/A71G/F92V IgV-Fc (Fc fusion),MFI at 33.3 nM,[8],7540 MFI
variant CD80 K36E/I67T/L70Q/A91G/I118V/T120S/T130A/N152T (Fc fusion),MFI,[3],8 MFI
ICOSL-Fc N52R/N57F/Q100R (Fc fusion),MFI,[5],464000 MFI
same,MFI,[6],185000 MFI
CD80 variant E35D/M47I/K54R/L85E IgV-Fc (Fc fusion),MFI at 33.3 nM,[7],8660 MFI
same,MFI at 33.3 nM,[11],36900 MFI
variant CTLA-4 ECD-Fc M56T/L98Q/Y105L (Fc fusion),MFI,[1],700 MFI
ICOSL-Fc N52R/N57Y/Q100P (Fc fusion),MFI,[5],502000 MFI
same,MFI,[6],133000 MFI
ICOSL-Fc N52S/N57A/Q100A (Fc fusion),MFI,[5],233000 MFI
same,MFI,[6],98200 MFI
CTLA4-Fc (from UniProt P16410) (Fc fusion),MFI at 20 nM,[15],200000 MFI
variant CTLA-4 ECD-Fc G29W/M56T/L98Q/Y105L (Fc fusion),MFI,[1],612 MFI
ICOSL-Fc N52R/N57F/Q100P (Fc fusion),MFI,[5],504000 MFI
same,MFI,[6],154000 MFI
CTLA-4 ECD-Fc L98Q/Y105L (Fc fusion),MFI,[12],3860 MFI
same,MFI,[13],1190 MFI
same,MFI,[14],685000 MFI
CTLA-4 ECD-Fc L63P (Fc fusion),MFI,[12],3930 MFI
same,MFI,[13],966 MFI
same,MFI,[14],596000 MFI
variant CD80 V22L/Q27H/E35D/M47I/A71G (Fc fusion),Fold change to WT CD80,[16],0.96 fold
same,MFI at 33.3 nM,[16],152000 MFI
same,Fold change to WT CD80,[17],0.4 fold
same,MFI at 33.3 nM,[17],7270 MFI
same,MFI at 33.3 nM,[18],43800 MFI
variant CD80 K89E/T130A (Fc fusion),MFI,[2],148 MFI
ICOSL-Fc N52D/Q100S (Fc fusion),MFI,[5],333000 MFI
same,MFI,[6],95700 MFI
CD80 variant E35D/M47V/T62A/A71G/V83A/Y87H/L97M IgV-Fc (Fc fusion),MFI at 33.3 nM,[7],18100 MFI
same,MFI at 33.3 nM,[11],77500 MFI
same,MFI at 33.3 nM,[8],305 MFI
ICOSL-Fc N52G/Q100A (Fc fusion),MFI,[9],303000 MFI
same,MFI,[6],98700 MFI
ICOSL-Fc N52T/N57Y/Q100A (Fc fusion),MFI,[5],341000 MFI
same,MFI,[6],161000 MFI
variant PD-L1 G15A/V129D Fc fusion,MFI at 20 nM,[15],128 MFI
ICOSL ECD-Fc N52S/T113E (Fc fusion),MFI,[10],54 MFI
CTLA-4 ECD-Fc L12P/A26T (Fc fusion),MFI,[12],1024 MFI
same,MFI,[13],928 MFI
same,MFI,[14],276000 MFI
same,MFI ratio to WT (ΔWT),[14],0.4 fold
variant CD80 R29H/E52G/D90N/I118V/T120S/T130A (Fc fusion),MFI,[2],141 MFI
same,MFI,[3],66 MFI
variant CD80 R29H/E52G/L70R/E88G/A91G/T130A (Fc fusion),MFI,[2],119 MFI
same,parental ratio,[2],0.57
same,MFI,[3],100 MFI
same,MFI,[4],5 MFI
same,parental ratio,[4],0.08
ICOSL-Fc N52H/N57Y/Q100R (Fc fusion),MFI,[9],200000 MFI
same,MFI ratio to WT (ΔWT),[9],0.94 fold
same,MFI,[5],817000 MFI
same,MFI ratio to WT (ΔWT),[5],2.47 fold
same,MFI,[6],142000 MFI
same,MFI ratio to WT (ΔWT),[6],6.4 fold
ICOSL-Fc N52R/N57W (Fc fusion),MFI,[5],318000 MFI
same,MFI,[6],137000 MFI
variant CD80 L70Q/A91G/N144D (Fc fusion),MFI,[4],6 MFI
CD80 variant Q33R/E35D/K37E/M47V/L85Q IgV-Fc (Fc fusion),MFI at 33.3 nM,[11],44400 MFI
same,MFI at 33.3 nM,[8],258 MFI
ICOSL-Fc N52R/N57F/Q100N (Fc fusion),MFI,[5],233000 MFI
same,MFI,[6],161000 MFI
ICOSL-Fc N52G/N57P/Q100D (Fc fusion),MFI,[5],10200 MFI
same,MFI,[6],5720 MFI
variant CD80 V20L/L70Q/A91S/I118V/T120S/T130A (Fc fusion),MFI,[2],200 MFI
same,parental ratio,[2],0.96
same,MFI,[3],105 MFI
same,MFI,[4],9 MFI
same,parental ratio,[4],0.13
ICOSL-Fc N52V/N57L/Q100A (Fc fusion),MFI,[5],252000 MFI
same,MFI,[6],132000 MFI
CD80 variant S15P/Q33L/E35D/M47L/L85Q IgV-Fc (Fc fusion),MFI at 33.3 nM,[8],266 MFI
variant CTLA-4 ECD-Fc L12F/R16H/G29W/M56T/S72G/L98Q/Y105L (Fc fusion),MFI,[1],613 MFI
CD80 variant E24D/Q33L/E35D/M47V/K54R/L85Q IgV-Fc (Fc fusion),MFI at 33.3 nM,[7],311000 MFI
same,MFI at 33.3 nM,[11],67100 MFI
ICOSL-Fc N52S/N57L/Q100G (Fc fusion),MFI,[5],79400 MFI
same,MFI,[6],71900 MFI
variant CTLA-4 ECD-Fc G29W/L98Q/Y105L (Fc fusion),MFI,[1],570 MFI
WT CD80 ECD-Fc (R&D) (Fc fusion),MFI at 33.3 nM,[11],7940 MFI
same,MFI at 33.3 nM,[17],18000 MFI
same,MFI at 33.3 nM,[18],11900 MFI
same,MFI at 33.3 nM,[8],7630 MFI
CTLA-4 ECD-Fc L12P/A26T/L63P/L98Q/Y105L (Fc fusion),MFI,[12],829 MFI
same,MFI,[13],873 MFI
same,MFI,[14],762000 MFI
variant CTLA-4 ECD-Fc L12F/R16H/G29W/L98Q/Y105L (Fc fusion),MFI,[1],862 MFI
variant PD-L1 V93E/V129D Fc fusion,MFI at 20 nM,[15],150 MFI
CD80 variant Q33L/E35D/M47V/T79A IgV-Fc (Fc fusion),MFI at 33.3 nM,[7],28900 MFI
same,MFI at 33.3 nM,[11],62100 MFI
ICOSL-Fc N52P/N57P (Fc fusion),MFI,[6],21000 MFI
variant CD80 L65H/D90G/T110A/F116L (Fc fusion),MFI,[2],121 MFI
same,MFI,[3],33 MFI
CTLA-4 ECD-Fc L98R/N110K (Fc fusion),MFI,[12],2110 MFI
same,MFI,[14],665000 MFI
CD80 variant E35D/M47L/A71G/L97Q IgV-Fc (Fc fusion),MFI at 33.3 nM,[7],226000 MFI
same,MFI at 33.3 nM,[8],300 MFI
variant CD80 M38V/T41D/M43I/W50G/D76G/V83A/K89E/I118V/T120S/I126V/T130A (Fc fusion),MFI,[3],5 MFI
CD80 variant Q33R/E35D/D46E/M47I IgV-Fc (Fc fusion),MFI at 33.3 nM,[7],3560 MFI
same,MFI at 33.3 nM,[8],303 MFI
